What is called Kd is the free concentration of one partner at which half of the binding sites on the other are occupied at equilibrium, for simple one-to-one binding. Read a high Kd as weaker binding.

The results in this text go back to publication PMC3936744 (Nucleic Acids Research, 2013).

Read-outs that look alike come from different tables or passages of the source.

Data set [1] deals with T1, Dpo4 (Sulfolobus solfataricus P2 DNA polymerase IV) (Saccharolobus solfataricus, UniProt Q97W02).
T1 sequence (Q97W02 1-352): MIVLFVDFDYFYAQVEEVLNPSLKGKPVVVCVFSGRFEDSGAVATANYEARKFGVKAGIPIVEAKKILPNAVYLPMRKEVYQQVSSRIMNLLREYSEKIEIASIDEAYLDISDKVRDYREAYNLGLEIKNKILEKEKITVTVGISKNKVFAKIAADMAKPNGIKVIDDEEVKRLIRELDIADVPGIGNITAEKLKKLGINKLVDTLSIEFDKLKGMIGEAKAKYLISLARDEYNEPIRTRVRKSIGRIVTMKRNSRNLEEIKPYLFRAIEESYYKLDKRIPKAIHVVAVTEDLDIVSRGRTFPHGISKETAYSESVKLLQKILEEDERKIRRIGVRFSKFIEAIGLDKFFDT
As to the kind of experiment: smFRET histogram shift and dissociation rate of the Dpo4-DNA complex. The format is binding. As to conditions: 1 mM; incorrect nucleotide; 8Cy3 primer-template; Ca2+, pH 7.5, 21 °C.

For data set [2], the target named is T2, Dpo4 (P2 DNA polymerase IV), wild type, Cy5-labeled (Sulfolobus solfataricus P2, UniProt Q97W02 1-352).
T2 sequence: T1 sequence (Q97W02 1-352)
The data set is described as follows: smFRET.

Data set [3] deals with T2, Dpo4 (P2 DNA polymerase IV), wild type, …. As to the kind of experiment: smFRET. The source holds these as a separate data set.
Data set [4] has the same target. The data set is described as follows: smFRET. This is another data set of the same source.

For `Nc1ccn([C@H]2C[C@H](O)[C@@H](COP(=O)(O)OP(=O)(O)OP(=O)(O)O)O2)c(=O)n1` [dCTP], in data set [1], the “smFRET histogram shift and dissociation rate of the Dpo4-DNA complex” value is “both dCTP and dTTP induced a low FRET shift identical to that observed”.

B1: 12Cy3 primer-template (dsDNA)
DNA 1: GATGAAAATGAAGGATA
DNA 2: CTCATAATAGCTATCCTTCATTTTCATC
modifications: amino-C6-dT in template
In the case of B1, the binding result in data set [2] is recorded as “binds”.

B2: 8Cy3 primer-template (dsDNA)
DNA 1: GATGAAAATGAAG
DNA 2: CTCATAATAGCTATCCTTCATTTTCATC
modifications: amino-C6-dT in template
In data set [3], B2 returned a Kd of 30 ± 10 nM.

B3: 11Cy3 primer-template (dsDNA)
DNA 1: GATGAAAATGAAGGAT
DNA 2: CTCATAATAGCTATCCTTCATTTTCATC
modifications: amino-C6-dT in template
B3: the binding result in data set [2] is “binds”.

B4: 10Cy3 primer-template (dsDNA)
DNA 1: GATGAAAATGAAGGA
DNA 2: CTCATAATAGCTATCCTTCATTTTCATC
modifications: amino-C6-dT in template
On to B4, for which, in data set [2], the binding result is given as “binds”.

B5: 7Cy3 primer-template (dsDNA)
DNA 1: GATGAAAATGAA
DNA 2: CTCATAATAGCTATCCTTCATTTTCATC
modifications: amino-C6-dT in template
For the molecule B5, in data set [2], the binding result is “binds”.

B6: 9Cy3 primer-template (dsDNA)
DNA 1: GATGAAAATGAAGG
DNA 2: CTCATAATAGCTATCCTTCATTTTCATC
modifications: amino-C6-dT in template
For B6, the binding result in data set [4] was “binds”.
